Source: paper PMC2629542 (The Journal of biological chemistry, 2006)

Biological target: Dr hemagglutinin (DraE) adhesin, Dr fimbriae (E. coli)
Assay: SPR

B1: N-domain of CEACAM6 (domain or fragment)
chain: KLTIESTPFNVAEGKEVLLLAHNLPQNRIGYSWYKGERVDGNSLIVGYVIGTQQATPGPAYSGRETIYPNASLLIQNVTQNDTGFYTLQVIKSDLVNEEATGQFHVYPEL
**Q.** Which Kd does the source give for B1 here?
**A.** 30.1 µM
